According to paper PMC8171077:

Tests used:
[1] = FITC-FA fluorescence microscopy of stable cell lines, 24 h; conditions: glycan lost; control: FOLR1 WT stable cells
[2] = qRT-PCR and label-free quantitative proteomics of FOLR1; conditions: glycan changed form; control: matched control stable cells

Row | Protein | other: folate uptake [1] | expression_or_secretion [2]
1 | folate receptor alpha (FOLR1): N69A (protein) parent chain: MAQRMTTQLLLLLVWVAVVGEAQTRIAWARTELLNVCMNAKHHKEKPGPEDKLHEQCRPWRKNACCSTNTSQEAHKDVSYLYRFNWNHCGEMAPACKRHFIQDTCLYECSPNLGPWIQQVDQSWRKERVLNVPLCKEDCEQWWEDCRTSYTCKSNWHKGWNWTSGFNKCAVGAACQPFHFYFPTPTVLCNEIWTHSYKVSNYSRGSGRCIQMWFDPAQGNPNEEVARFYAAAMSGAGPWAAWPFLLSLALMLLWLLS | decreases | 
2 | folate receptor alpha (FOLR1): N201A (protein) parent chain: MAQRMTTQLLLLLVWVAVVGEAQTRIAWARTELLNVCMNAKHHKEKPGPEDKLHEQCRPWRKNACCSTNTSQEAHKDVSYLYRFNWNHCGEMAPACKRHFIQDTCLYECSPNLGPWIQQVDQSWRKERVLNVPLCKEDCEQWWEDCRTSYTCKSNWHKGWNWTSGFNKCAVGAACQPFHFYFPTPTVLCNEIWTHSYKVSNYSRGSGRCIQMWFDPAQGNPNEEVARFYAAAMSGAGPWAAWPFLLSLALMLLWLLS | decreases | 
3 | folate receptor alpha (FOLR1): FUT8 overexpression (protein) parent chain: MAQRMTTQLLLLLVWVAVVGEAQTRIAWARTELLNVCMNAKHHKEKPGPEDKLHEQCRPWRKNACCSTNTSQEAHKDVSYLYRFNWNHCGEMAPACKRHFIQDTCLYECSPNLGPWIQQVDQSWRKERVLNVPLCKEDCEQWWEDCRTSYTCKSNWHKGWNWTSGFNKCAVGAACQPFHFYFPTPTVLCNEIWTHSYKVSNYSRGSGRCIQMWFDPAQGNPNEEVARFYAAAMSGAGPWAAWPFLLSLALMLLWLLS |  | no change
4 | folate receptor alpha (FOLR1): N161A (protein) parent chain: MAQRMTTQLLLLLVWVAVVGEAQTRIAWARTELLNVCMNAKHHKEKPGPEDKLHEQCRPWRKNACCSTNTSQEAHKDVSYLYRFNWNHCGEMAPACKRHFIQDTCLYECSPNLGPWIQQVDQSWRKERVLNVPLCKEDCEQWWEDCRTSYTCKSNWHKGWNWTSGFNKCAVGAACQPFHFYFPTPTVLCNEIWTHSYKVSNYSRGSGRCIQMWFDPAQGNPNEEVARFYAAAMSGAGPWAAWPFLLSLALMLLWLLS | decreases | 
5 | folate receptor alpha (FOLR1): shFUT8 (protein) parent chain: MAQRMTTQLLLLLVWVAVVGEAQTRIAWARTELLNVCMNAKHHKEKPGPEDKLHEQCRPWRKNACCSTNTSQEAHKDVSYLYRFNWNHCGEMAPACKRHFIQDTCLYECSPNLGPWIQQVDQSWRKERVLNVPLCKEDCEQWWEDCRTSYTCKSNWHKGWNWTSGFNKCAVGAACQPFHFYFPTPTVLCNEIWTHSYKVSNYSRGSGRCIQMWFDPAQGNPNEEVARFYAAAMSGAGPWAAWPFLLSLALMLLWLLS |  | no change
